For this series, the system named is MBP-ComGC (soluble globular head) (Streptococcus sanguinis 2908?). In words: EMSA. The settings on record: 2.5 mM Mg2+; 25 mM Tris-HCl pH 8, 2.5 mM MgCl2, 50 mM NaCl, room temperature 30 min, 120 ng pUC19 in 10 uL; 0.8% agarose in TAE.

A value given as a limit tells only on which side of the number the result lay.

With pUC19 plasmid, the binding was more than 10 µM.

The record behind these values is article PMC12153270.
